Assay results as given in patent US20220251236A1 (Boehringer Ingelheim, published 2022).
Numbering of substitutions follows the chain as printed.

What was measured:
[1] = target: T1, human DLL3 (endogenous, on SCLC cell lines NCI-H82 and SHP77 and in SCLC tissue) (human, UniProt Q9NYJ7 27-618); test: flow cytometry on a DLL3-positive SCLC cell line (not named on the sheet), PE-conjugated anti-mouse secondary antibody
T1 construct: whole, on cells; also called SCLC cell lines expressing DLL3
T1 sequence (looked up): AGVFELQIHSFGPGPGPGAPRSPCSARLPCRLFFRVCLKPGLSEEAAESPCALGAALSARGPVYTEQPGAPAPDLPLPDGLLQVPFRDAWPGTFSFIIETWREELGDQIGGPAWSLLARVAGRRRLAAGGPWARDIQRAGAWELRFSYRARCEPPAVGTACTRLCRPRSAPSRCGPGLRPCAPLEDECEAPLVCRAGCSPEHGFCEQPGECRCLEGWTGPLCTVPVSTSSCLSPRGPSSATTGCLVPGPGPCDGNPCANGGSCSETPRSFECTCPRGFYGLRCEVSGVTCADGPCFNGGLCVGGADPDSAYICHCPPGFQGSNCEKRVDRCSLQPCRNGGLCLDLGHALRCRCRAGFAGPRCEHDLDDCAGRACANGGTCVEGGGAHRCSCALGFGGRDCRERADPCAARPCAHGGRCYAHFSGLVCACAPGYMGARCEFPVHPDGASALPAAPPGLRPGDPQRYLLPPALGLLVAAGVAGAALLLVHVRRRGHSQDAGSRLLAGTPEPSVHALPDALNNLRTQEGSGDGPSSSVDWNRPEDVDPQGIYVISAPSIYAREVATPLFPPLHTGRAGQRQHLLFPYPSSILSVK
Source text: Cells (T cells or human SCLC cells) were stained with increasing concentrations of anti-DLL3 antibody with increasing concentrations in FACS buffer (PBS/0.5% BSA/0.05% sodium azide).

Human DLL3-His = target: T2, Human DLL3-His (human, UniProt Q9NYJ7 27-492); test: sandwich ELISA with ECL readout (MSD): anti-DLL3 antibody coated, recombinant DLL3 protein titrated; the concentration is that of DLL3 protein
T2 construct: also called huDLL3-His; hu DLL3
T2 sequence: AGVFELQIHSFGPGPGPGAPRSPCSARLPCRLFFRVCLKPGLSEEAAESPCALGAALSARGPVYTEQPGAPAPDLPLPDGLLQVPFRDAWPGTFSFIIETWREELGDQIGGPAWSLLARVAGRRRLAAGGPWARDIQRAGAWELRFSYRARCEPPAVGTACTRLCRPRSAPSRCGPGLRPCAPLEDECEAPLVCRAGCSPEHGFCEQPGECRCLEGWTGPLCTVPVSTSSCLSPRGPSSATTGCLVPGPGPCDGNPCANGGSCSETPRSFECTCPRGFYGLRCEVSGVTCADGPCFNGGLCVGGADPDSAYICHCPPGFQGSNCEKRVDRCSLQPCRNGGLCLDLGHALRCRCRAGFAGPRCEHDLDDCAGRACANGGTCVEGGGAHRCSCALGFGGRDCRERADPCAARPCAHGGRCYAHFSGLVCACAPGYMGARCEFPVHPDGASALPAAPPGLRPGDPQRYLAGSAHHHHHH
Protocol: Binding of antibodies was performed in an ELISA. In brief, anti-DLL3 antibodies were coated at a concentration of […] at 4° C. over night. After washing the plates were blocked with blocking buffer (Gibco, Gibco #043-90309A) for one hour at room temperature, followed by washing and incubation with recombinant DLL3 protein at increasing concentrations. For detection the bound DLL3 protein was incubated with a polyclonal anti-DLL3 antibody (R&D Systems, AB4315) followed by a SULFO-TAG labelled anti-goat antibody (R32AG-1) for one hour. The bound antibody was quantified by using a Read Buffer (MSD) in a Sector imager 6000 (MSD).

[2] = target: T1, human DLL3 (endogenous, on SCLC cell …); test: flow cytometry titration on SHP77 cells, PE anti-human secondary, x-fold over background
Source text: (§1) Cells (T cells or human SCLC cells) were stained with increasing concentrations of two-step purified DLL3/CD3 binding proteins with increasing concentrations in FACS buffer (PBS/0.5% BSA/0.05% sodium azide). Bound molecules were detected with PE-conjugated anti-human secondary antibody (Sigma-Aldrich, #P8047).

[3] = target: T1, human DLL3 (endogenous, on SCLC cell …); test: flow cytometry titration on NCI-H82 cells, PE anti-human secondary, x-fold over background
Source text: as §1

EGF1+2 = target: T3, EGF1+2; test: flow cytometry on HEK293 cells expressing the DLL3 subdomain construct, PE anti-human secondary, control: secondary antibody only
T3 construct: also called Hu DLL3 EGF1+2 on HEK293 cells
T3 membrane-anchored DLL3 subdomain construct: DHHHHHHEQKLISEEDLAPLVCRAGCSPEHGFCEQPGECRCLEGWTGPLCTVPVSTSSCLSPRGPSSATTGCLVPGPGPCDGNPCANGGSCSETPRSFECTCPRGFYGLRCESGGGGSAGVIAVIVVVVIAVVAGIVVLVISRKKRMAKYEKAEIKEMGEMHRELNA
Protocol: (§2) DLL3/CD3 binding proteins were produced by transient transfection of CHO-E cells with the pTT5 vectors carrying the chain-encoding genes, as described in Example 2. […] Bound molecules were detected with PE-conjugated anti-human secondary antibody (Sigma-Aldrich, #P8047). As negative control, cells were incubated with secondary antibody only.
(§3) The samples were measured by flow-cytometry. […] The sequences of the epitope domains are listed in Example 5, Table 3.

[4] = target: T4, EGF6+MEMBRANE PROXIMAL PEPTIDE; test: as above
T4 construct: also called Hu DLL3 EGF6+membrane proximal peptide on HEK293 cells
T4 membrane-anchored DLL3 subdomain construct: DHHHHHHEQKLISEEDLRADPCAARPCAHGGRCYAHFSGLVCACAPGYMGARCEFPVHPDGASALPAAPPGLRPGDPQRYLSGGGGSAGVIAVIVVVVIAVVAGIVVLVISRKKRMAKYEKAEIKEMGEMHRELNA
Protocol: as §2, §3

EGF3+4 = target: T5, EGF3+4; test: as above
T5 construct: also called Hu DLL3 EGF3+4 on HEK293 cells
T5 membrane-anchored DLL3 subdomain construct: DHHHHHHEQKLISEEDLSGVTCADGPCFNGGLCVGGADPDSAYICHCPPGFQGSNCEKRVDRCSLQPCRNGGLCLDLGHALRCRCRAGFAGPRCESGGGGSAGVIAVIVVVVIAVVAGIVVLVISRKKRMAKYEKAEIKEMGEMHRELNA
Protocol: as §2, §3

EGF5+6 = target: T6, EGF5+6; test: as above
T6 construct: also called Hu DLL3 EGF5+6 on HEK293 cells
T6 membrane-anchored DLL3 subdomain construct: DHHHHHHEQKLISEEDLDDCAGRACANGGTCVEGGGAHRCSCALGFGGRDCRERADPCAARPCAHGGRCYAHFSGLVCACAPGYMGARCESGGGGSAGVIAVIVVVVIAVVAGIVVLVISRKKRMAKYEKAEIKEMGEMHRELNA
Protocol: as §2, §3

EGF4+5 = target: T7, EGF4+5; test: as above
T7 construct: also called Hu DLL3 EGF4+5 on HEK293 cells
T7 membrane-anchored DLL3 subdomain construct: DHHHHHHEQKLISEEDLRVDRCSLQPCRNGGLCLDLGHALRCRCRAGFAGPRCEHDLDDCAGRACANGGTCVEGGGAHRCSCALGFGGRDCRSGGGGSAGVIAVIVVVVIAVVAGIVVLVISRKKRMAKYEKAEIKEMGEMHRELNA
Protocol: as §2, §3

EGF2+3 = target: T8, EGF2+3; test: as above
T8 construct: also called Hu DLL3 EGF2+3 on HEK293 cells
T8 membrane-anchored DLL3 subdomain construct: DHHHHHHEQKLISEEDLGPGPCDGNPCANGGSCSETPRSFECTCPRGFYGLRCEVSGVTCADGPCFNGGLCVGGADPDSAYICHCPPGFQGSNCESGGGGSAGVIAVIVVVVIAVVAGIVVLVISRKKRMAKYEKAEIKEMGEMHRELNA
Protocol: as §2, §3

B1: anti-DLL3 antibody DLL3#5 (antibody, V domains shown)
VH: QVQLVQSGAEVKKPGASVKVSCKASGFTFTGYYIHWVRQAPGQGLEWMGWINPNSGGTNYAQKFQGRVTMTRDSSINTAFMELSRLTSDDTAVYYCAAGWDYWGQGTLVTVSS
VL: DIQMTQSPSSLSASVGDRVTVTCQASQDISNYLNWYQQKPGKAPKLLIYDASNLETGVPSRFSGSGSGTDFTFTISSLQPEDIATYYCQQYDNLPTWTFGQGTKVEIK
notes: detected with anti-mouse reagents
- EC50 (read off the curve) [1]: ~0.5 nM
- EC50 (read off the curve) (Human DLL3-His): ~10 ng/mL

B2: DLL3#15/CD3#1 (bispecific antibody, human IgG1, kappa, lambda, L234A L235A)
chain 1: not shown
chain 2: EAVVTQEPSLTVSPGGTVTLTCRSSTGAVTTSNYANWVQEKPGQLPRGLIGGTNKRAPWVPARFSGSLLGGKAALTLSGAQPEDEAEYFCALWYSNLWVFGGGTKLTVLGQPKAAPSVTLFPPSSEELQANKATLVCLISDFYPGAVKVAWKADGSPVNTGVETTTPSKQSNNKYAASSYLSLTPEQWKSHRSYSCQVTHEGSTVEKTVAPAECSGGGGSEGKSSGSGSESKSTEGKSSGSGSESKSTGGGGSEVQLVESGGGLVQPGGSLKLSCAASGFTFNTYAMNWVRQAPGKGLEWVARIRSKYNNYATYYADSVKDRFTISRDDSKNTAYLQMNNLKTEDTAVYYCVRHGNFGNSYVSWFAYWGQGTLVTVSAASTKGPSVFPLAPSSKSTSGGTAALGCLVKDYFPEPVTVSWNSGALTSGVHTFPAVLQSSGLYSLSSVVTVPSSSLGTQTYICNVNHKPSNTKVDKRVEPKSCDKTHTCPPCPAPEAAGGPSVFLFPPKPKDTLMISRTPEVTCVVVDVSHEDPEVKFNWYVDGVEVHNAKTKPREEQYNSTYRVVSVLTVLHQDWLNGKEYKCKVSNKALPAPIEKTISKAKGQPREPQVYTLPPSREEMTKNQVSLSCAVKGFYPSDIAVEWESNGQPENNYKTTPPVLDSDGSFFLVSKLTVDKSRWQQGNVFSCSVMHEALHNRFTQKSLSLSPG
notes: Heterodimer of one DLL3 chain and one CD3 chain (scFab-Fc, knob-in-hole); SPR not given
- EC50 (read off the curve) [2]: ~2 nM
- EC50 (read off the curve) [3]: ~1 nM
- binding result (EGF1+2): no binding (tested: 1.6 nM)
- binding result [4]: no binding (tested: 1.6 nM)
- binding result (EGF3+4): no binding (tested: 1.6 nM)
- binding result (EGF5+6): no binding (tested: 1.6 nM)
- binding result (EGF4+5): no binding (tested: 1.6 nM)
- binding result (EGF2+3): no binding (tested: 1.6 nM)

B3: anti-DLL3 antibody DLL3#6 (antibody, V domains shown)
VH: QVQLQESGPGLVKPSETLSLTCTVSGGSISSYFWSWIRQPAGKGLEWIGRIYTSGSTNYNPSLNSRLTMSVDTSKNQFSLKLSSVTAADTAVYYCARRGDWGGFDIWGQGTVVTVSS
VL: DIQLTQSPSFLSTSVGDRVTITCRASQDISNYFAWYQQKPGKAPKLLIYAASTLQSGVPSRFSGGGSGTEFTLTISSLQPEDFATYYCQQLNSYPYTFGQGTKLEIK
notes: detected with anti-mouse secondary antibody
- EC50 (read off the curve) [1]: ~0.4 nM

B4: anti-DLL3 antibody DLL3#4 (antibody, V domains shown)
VH: QVQLQQSGTELVKPGASVKLSCKASVYTFTSYFMYWVKQRPGHGLEWIGEISPTNGNSNLNERFKNKATLTVDKSSSTAYMQLSSLTSEDSAVYYCTRGGDGYLDYWGQGTTLTVSS
VL: DIVLTQSPASLAVSLGQRATISCRASKSVSSFGYSFMHWYQQKPGQPPKLLIYLASNLESGVPARFSGSGSGTDFTLNIHPVEEEDAATYYCQHSRELPWTFGGGTKLEIK
notes: as for B3
- EC50 (read off the curve) [1]: ~0.1 nM
- EC50 (read off the curve) (Human DLL3-His): ~20 ng/mL

B5: anti-DLL3 antibody DLL3#3 (antibody, V domains shown)
VH: QVQLVQSGAEVKKPGASVKVSCKASGYTFTSYYVHWVRQAPGQGLEWMVIINPGGGTTSYAQKFLGRVTMTRDTSTNTVYMELKSLRSEDTAVYYCARGEAVTGNYFYYGMDVWGQGTTVTVSS
VL: DIQMTQSPSAMSASVGDRVTITCRASQGISNYLVWFQQKPGKAPKRLIYAVSSLYSGVPSRFSGSGSGTEFTLTISSLQPEDFATYYCLQHDSYPYTFGQGTKLEIK
notes: as for B3
- EC50 (read off the curve) (Human DLL3-His): ~10 ng/mL

B6: anti-DLL3 antibody DLL3#2 (antibody, V domains shown)
VH: B5 VH with V34M, V49G, G54S, T57S, L65Q, N77S, K84S, T103G, F107Y
VL: B5 VL with V34A, A43V, K45E, R46P, V51A, Y55Q, G68V, D92N, Y94S
notes: as for B3
- binding result [1]: binds

B7: anti-DLL3 antibody DLL3#1 (antibody, V domains shown)
VH: QVQLVQSGAEVKKPGASVKVSCKASGNTFTNYYMHWVRQAPGPGLEWMGIIDPSVGSKSYAQKFLGRVTIARDTSTSTVFLDLYSLRSEDTAVYFCARAGKRFGESYFDYWGQGTLVTVSS
VL: EIVLTQSPGTLSLSPGERATLSCRASQSVSSNFLVWYQQKPGQAPRPLIYGASTRASGIPDRFSGSGSGADFTLTISRLEPEDFALYYCQQYGDSPYTFGQGTTLEIK
notes: it was detected with anti-mouse reagents
- binding result [1]: binds
